Assay [1] concerns the target T1, human ULBP-1-Fc (R&D systems) (human, UniProt Q9BZM6 26-216, limits assumed).
T1 construct: Bought; not shown: Fc of the bought fusion protein
T1 sequence (looked up): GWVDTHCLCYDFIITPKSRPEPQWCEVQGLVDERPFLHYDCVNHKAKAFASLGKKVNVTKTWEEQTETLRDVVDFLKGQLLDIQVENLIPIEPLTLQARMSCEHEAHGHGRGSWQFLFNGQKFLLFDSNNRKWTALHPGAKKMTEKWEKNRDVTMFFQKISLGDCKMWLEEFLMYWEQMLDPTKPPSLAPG
Description: SPR, antibody injected over immobilized ULBP-1-Fc. As to the method:
(§1) For cross-binding study, the human ULBP-1-Fc (R&D systems*), MICB-Fc (*), ULBP-2-Fc (*) and ULBP-3-Fc (*) recombinant proteins were covalently immobilized respectively on the flow cell one to four of a CM5 sensorchip. Anti-MICA antibodies (at a constant concentration of 10 μg/ml) were injected for 2 minutes at a flow rate of 10 μl/min onto the four flow cells in parallel. After each cycle, Sensorchip was regenerated by a five second injection of appropriate regeneration buffer.
For orientation: Surface plasmon resonance follows binding to a sensor surface in real time, without labels.

The target of assay [2] is T2, human ULBP-3-Fc (R&D systems) (human, UniProt Q9BZM4 30-217, limits assumed).
T2 construct: Bought; not shown: Fc of the bought fusion protein
T2 sequence (looked up): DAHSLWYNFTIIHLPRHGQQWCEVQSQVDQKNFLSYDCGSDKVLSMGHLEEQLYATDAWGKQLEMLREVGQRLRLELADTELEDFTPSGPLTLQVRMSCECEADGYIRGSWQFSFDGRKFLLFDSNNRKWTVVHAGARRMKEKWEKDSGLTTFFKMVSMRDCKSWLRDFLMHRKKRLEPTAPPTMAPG
As to the kind of experiment: SPR, antibody injected over immobilized ULBP-3-Fc. The method, then: as §1

Assay [3] has as its target T3, human ULBP-2-Fc (R&D systems) (human, UniProt Q9BZM5 26-217, limits assumed).
T3 construct: Bought; not shown: Fc of the bought fusion protein
T3 sequence (looked up): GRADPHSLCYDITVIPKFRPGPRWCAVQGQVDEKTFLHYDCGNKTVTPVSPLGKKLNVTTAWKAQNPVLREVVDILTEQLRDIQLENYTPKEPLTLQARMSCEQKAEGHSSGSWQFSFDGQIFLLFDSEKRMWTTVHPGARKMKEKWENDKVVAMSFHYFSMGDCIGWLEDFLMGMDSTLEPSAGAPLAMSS
As to the kind of experiment: SPR, antibody injected over immobilized ULBP-2-Fc. The method, then:
as §1

The target in assay [4] is T4, MICA*001 expressed at the cell surface (human, UniProt Q29983 24-297).
T4 construct: the protein on cells also has its transmembrane and cytoplasmic parts (Genbank AAB41060); also called C1R-MICA*001; C1R-MICA*01
T4 sequence: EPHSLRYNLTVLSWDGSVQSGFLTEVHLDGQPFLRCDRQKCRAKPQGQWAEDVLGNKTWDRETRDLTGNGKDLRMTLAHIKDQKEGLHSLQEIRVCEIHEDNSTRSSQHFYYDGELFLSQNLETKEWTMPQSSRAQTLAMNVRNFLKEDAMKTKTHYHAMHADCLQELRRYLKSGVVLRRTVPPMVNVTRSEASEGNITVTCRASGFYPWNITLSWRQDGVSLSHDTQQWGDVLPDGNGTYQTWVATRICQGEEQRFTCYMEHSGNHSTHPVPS
As to the kind of experiment: flow cytometry on C1R transfectant cells, 4-parameter logistic fit. As to the method: (§2) The binding of antibodies obtained from the first, second and third immunization series (including CHG1-M-MIA-19E9, CHG1-M-MIA-9C10, CHG1-M-MIA-6E4, CHG1-M-MIA-20C6, CHG1-M-MIA-16A8, CHG1-M-MIA-12A10, CHG1-M-MIA-10A7, CHG1-M-MIA-18E8, CHG1-M-MIA-10F3, CHG1-M-MIA-15F9 and CHG1-M-MIA-14B4) were tested for binding to MICA-expressing CR1 transfectant cells C1R-MICA*001, C1R-MICA*004, C1R-MICA*007 and C1R-MICA*008 (Pr. A. Steinle, Eberhard-Karls University Tuebingen, Germany) described in Salih et al. (2003) Blood 102(4): […]. Binding was analyzed by flow cytometry.
(§3) Cells were harvested and stained in PBS 1×/BSA 0.2%/EDTA 2 mM buffer during 30 minutes at 4° C. using a dose-range of the anti-MICA mAbs. After two washes in staining buffer, cells were stained for 30 min at 4° C. with mouse anti-human IgG1-PE monoclonal antibodies (1/11). After two washes, stainings were acquired on a BD FACS Canto II and analyzed using the FlowJo software.
(§4) Antibodies CHG1-M-MIA-19E9, CHG1-M-MIA-9C10, CHG1-M-MIA-6E4, CHG1-M-MIA-20C6, CHG1-M-MIA-12A10, CHG1-M-MIA-10A7, CHG1-M-MIA-18E8, CHG1-M-MIA-10F3, and CHG1-M-MIA-15F9 bound to each of the C1R-MICA*001, C1R-MICA*004, C1R-MICA*007 and C1R-MICA*008 cells (see FIG. 1A for antibodies CHG1-M-MIA-19E9, CHG1-M-MIA-9C10, CHG1-M-MIA-6E4, CHG1-M-MIA-20C6, CHG1-M-MIA-12A10, CHG1-M-MIA-10F3, and FIG. 1B for antibodies, CHG1-M-MIA-18E8, CHG1-M-MIA-15F9, CHG1-M-MIA-10A7). […] EC50 values are shown in Table C in μg/ml (calculated using a 4-parameter logistic fit).
Background: Flow cytometry measures light scatter and fluorescence of single cells or particles in a stream.

In assay [5] the target is T5, MICA*004 expressed at the cell surface (human, UniProt Q29983 24-297).
T5 construct: also called C1R-MICA*004; C1R-MICA*04
T5 chain: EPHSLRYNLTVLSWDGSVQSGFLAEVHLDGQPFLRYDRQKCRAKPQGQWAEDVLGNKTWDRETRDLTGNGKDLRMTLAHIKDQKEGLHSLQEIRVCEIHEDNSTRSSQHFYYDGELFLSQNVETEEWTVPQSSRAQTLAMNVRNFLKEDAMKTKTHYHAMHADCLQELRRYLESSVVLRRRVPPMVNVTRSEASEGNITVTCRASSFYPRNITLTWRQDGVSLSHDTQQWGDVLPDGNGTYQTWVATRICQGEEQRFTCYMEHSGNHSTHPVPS
The assay is described as above. As to the method: as §2, §3, §4

As usually defined, the EC50 is the concentration that produces a half-maximal response. A lower EC50 goes with a more potent agent.

B1: CHG1-M-MIA-6E4 (antibody, V domains shown)
VH: EVQLVESGGALVKPGGSLKLSCAASGFTFSYYAMSWVRQTPEKRLEWVATISRGGNYIYYTDSVKGRFTISRDNAKNTLYLQMTSLRSEDTAMFYCASISDYDGAWLAYWGQGTTLTVSS
VL: DVLMTQTPLSLPVSLGDQASISCRSSQSIIHTNGNTYLEWYLQKPGQSPKLLIYKISNRFSGVPDRFSGSGSGTDFTLKISRVEAEDLGVYYCFQGSHVPWTFGGGTKLEIKR
notes: also called chimeric anti-MICA 6E4
As for B1, the binding result in assay [1], in assay [2] and in assay [3] was “no binding (tested: 10 µg/ml)” in each case. Also, the EC50 in assay [4] was determined as 1.96 µg/mL; in assay [5], 2.67 µg/mL.

B2: CHG1-M-MIA-20C6 (antibody, V domains shown)
VH: QITLKESGPGILKPSQTLSLTCSFSGFSLSTSGMGVGWIRQPSGKGLEWLAHIWWDDDKYYNPSLKSQLTISKDTSRNQVFLRITSVDTADTATYYCARRTQGYFDYWGQGTTLTVSS
VL: DIVMTQSPATLSVTPGDRVSLSCRASQSISDYLHWYQQKSHESPRLLIKYASQSISGIPSRFSGSGSGSDFTLSINSVEPEDVGVYYCQNGHSFPWTFGGGTKLEIKR
notes: also called chimeric anti-MICA 20C6
On to B2, for which the binding result in assay [1], in assay [2] and in assay [3] was “no binding (tested: 10 µg/ml)” in each case. Besides, the values for the 50% effective concentration (EC50) in assay [4] and in assay [5] were 0.26 µg/mL and 0.05 µg/mL, respectively.

B3: CHG1-M-MIA-16A8 (antibody, V domains shown)
VH: EVQLVESGGGLVKPGGSLKLSCAASGFTFSRYAMSWVRQTPEKRLEWVATIFSGGSYTYYPDSVKGRFTISRDNANNTLYLQMSSLKAEDTAMYFCARPNWERTFDYWGQGTTLTVSS
VL: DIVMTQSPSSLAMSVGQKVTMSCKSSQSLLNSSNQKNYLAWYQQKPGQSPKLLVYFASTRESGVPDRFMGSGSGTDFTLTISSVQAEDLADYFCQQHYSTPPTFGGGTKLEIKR
notes: also called CHG1-M-MIA2-16A8; chimeric anti-MICA 16A8
Regarding B3, the binding result in assay [1], in assay [2] and in assay [3] was “no binding (tested: 10 µg/ml)” throughout. The values for the concentration for a half-maximal effect (EC50) in assay [4] and in assay [5] were 1.07 µg/mL and 0.44 µg/mL, respectively.

The values above are taken from US20200299380A1 (published 2020).
